The values below are quoted from earlier work in publication PMC2683804.

Data set [1] deals with amyloid-β 1-42 1-42 (Homo sapiens) (UniProt P05067).
Data set [2] has as its target amyloid-β 1-40 1-40 (Homo sapiens) (UniProt P05067).

The Kd is the constant that tells how readily two partners part at equilibrium. As for “human serum albumin (from UniProt P02768)”, the Kd in data set [1] is 10.5 µM; in data set [2], 9.25 µM.
